Numbering of substitutions follows the chain as printed. Names may count otherwise.
T1: IFN-γ receptor (IFNGR1 and IFNGR2) (UniProt P15260 18-489; P38484 22-337, limits assumed)
T1 sequence (looked up) 1: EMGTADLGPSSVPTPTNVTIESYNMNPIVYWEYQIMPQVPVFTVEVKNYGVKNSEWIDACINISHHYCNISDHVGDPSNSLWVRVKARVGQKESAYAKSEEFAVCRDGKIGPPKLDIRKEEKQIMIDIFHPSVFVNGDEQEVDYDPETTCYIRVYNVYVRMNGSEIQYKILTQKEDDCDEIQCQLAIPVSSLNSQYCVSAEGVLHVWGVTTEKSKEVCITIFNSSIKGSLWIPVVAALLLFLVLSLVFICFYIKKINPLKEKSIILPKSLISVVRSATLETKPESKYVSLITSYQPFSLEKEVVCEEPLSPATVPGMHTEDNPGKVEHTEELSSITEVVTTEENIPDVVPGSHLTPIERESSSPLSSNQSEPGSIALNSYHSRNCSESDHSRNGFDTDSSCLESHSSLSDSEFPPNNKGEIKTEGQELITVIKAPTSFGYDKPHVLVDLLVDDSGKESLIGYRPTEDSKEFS
T1 sequence (looked up) 2: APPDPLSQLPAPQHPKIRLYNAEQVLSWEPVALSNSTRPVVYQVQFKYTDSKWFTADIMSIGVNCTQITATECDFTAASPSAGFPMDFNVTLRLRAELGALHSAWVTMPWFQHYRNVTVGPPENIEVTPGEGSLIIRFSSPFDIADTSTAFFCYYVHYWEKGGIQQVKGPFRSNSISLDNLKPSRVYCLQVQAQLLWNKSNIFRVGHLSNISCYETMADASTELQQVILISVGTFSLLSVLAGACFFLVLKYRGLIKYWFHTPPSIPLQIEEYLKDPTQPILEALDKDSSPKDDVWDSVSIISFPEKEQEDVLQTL

B1: IL-12(E59A/F60A)/IFN-γ(A23V/A23V)/PD-L2(mut2)-Fc (Fc fusion)
chain 1: LFTVTVPKELYIIEHGSNVTLECNFDTGSHVNLGAITAVLQKVENDTSPHRERATLLEEQLPLGKASFHIPQVQVRDEGQYQCIIIYGVAWDYKYLTLKVKASYRKINTHILKVPETDEVELTCQATGYPLAEVSWPNVSVPANTSHSRTPEGLYQVTSVLRLKPPPGRNFSCVFWNTHVRELTLASIDLQSQMEPRTHPTGGGGSGGGIWELKKDVYVVELDWYPDAPGEMVVLTCDTPEEDGITWTLDQSSEVLGSGKTLTIQVKAAGDAGQYTCHKGGEVLSHSLLLLHKKEDGIWSTDILKDQKEPKNKTFLRCEAKNYSGRFTCWWLTTISTDLTFSVKSSRGSSDPQGVTCGAATLSAERVRGDNKEYEYSVECQEDSACPAAEESLPIEVMVDAVHKLKYENYTSSFFIRDIIKPDPPKNLQLKPLKNSRQVEVSWEYPDTWSTPHSYFSLTFCVQVQGKSKREKKDRVFTDKTSATVICRKNASISVRAQDRYYSSSWSEWASVPCSGGGGSGGGSGGGGSRNLPVATPDPGMFPCLHHSQNLLRAVSNMLQKARQTLEFYPCTSEEIDHEDITKDKTSTVEACLPLELTKNESCLNSRETSFITNGSCLASRKTSFMMALCLSSIYEDLKMYQVEFKTMNAKLLMDPKRQIFLDQNMLAVIDELMQALNFNSETVPQKSSLEEPDFYKTKIKLCILLHAFRIRAVTIDRVMSYLNASGGGGSGGGDKTHTCPPCPAPEDEGGPSVFLFPPKPKDTLMISRTPEVTCVVVDVSHEDPEVKFNWYVDGVEVHNAKTKPREEQYNSTYRVVSVLTVLHQDWLNGKEYKCKVSNKALPAPIEKTISKAKGQPREPQVYVYPPSREEMTKNQVSLTCLVKGFYPSDIAVEWESNGQPENNYKTTPPVLDEDGSFALVSKLTVDKSRWQQGNVFSCSVMHEALHNHYTQKSLSLSPGK
chain 2: LFTVTVPKELYIIEHGSNVTLECNFDTGSHVNLGAITAVLQKVENDTSPHRERATLLEEQLPLGKASFHIPQVQVRDEGQYQCIIIYGVAWDYKYLTLKVKASYRKINTHILKVPETDEVELTCQATGYPLAEVSWPNVSVPANTSHSRTPEGLYQVTSVLRLKPPPGRNFSCVFWNTHVRELTLASIDLQSQMEPRTHPTGGGSGQDPYVKEAENLKKYFNAGHSDVVDNGTLFLGILKNWKEESDRKIMQSQIVSFYFKLFKNFKDDQSIQKSVETIKEDMNVKFFNSNKKKRDDFEKLTNYSVTDLNVQRKAIHELIQVMAELSPAAKTGKRKRSQMLFRGGGGSGGGGSGGGGSGGGGSQDPYVKEAENLKKYFNAGHSDVVDNGTLFLGILKNWKEESDRKIMQSQIVSFYFKLFKNFKDDQSIQKSVETIKEDMNVKFFNSNKKKRDDFEKLTNYSVTDLNVQRKAIHELIQVMAELSPAAKTGKRKRSQMLFRGGGGGSGGGDKTHTCPPCPAPEKKGGPSVFLFPPKPKDTLMISRTPEVTCVVVDVSHEDPEVKFNWYVDGVEVHNAKTKPREEQYNSTYRVVSVLTVLHQDWLNGKEYKCKVSNKALPAPIEKTISKAKGQPREPQVYVLPPSREEMTKNQVSLLCLVKGFYPSDIAVEWESNGQPENRYMTWPPVLDSDGSFFLYSKLTVDKSRWQQGNVFSCSVMHEALHNHYTQKSLSLSPGK
B2: IL-12(E59A/F60A)/IFN-γ(A23V/A23V)/PD-L2(mut4)-Fc (Fc fusion)
chain 1: B1 chain 1 with T37V, Q41L
chain 2: B1 chain 2 with T37V, Q41L
B3: IL-12(E59A/F60A)/IFN-γ(A23V/A23V)/PD-L1(mut2)-Fc (Fc fusion)
chain 1: FTVTVPKDLYVVEYGSNMTIECKFPVEKQLDLAALQVYWMMEDKNIIQFVHGEEDLKVQHSSYRQRARLLKDQLSLGNAALQITDVKLQDAGVYTCLIAYKGADYKRITVKVNAPYNKINQRILVVDPVTSEHELTCQAEGYPKAEVIWTSSDHQVLSGKTTTTNSKREEKLFNVTSTLRINTTTNEIFYCTFRRLDPEENHTAELVIPELPLAHPPNERGGGGSGGGIWELKKDVYVVELDWYPDAPGEMVVLTCDTPEEDGITWTLDQSSEVLGSGKTLTIQVKAAGDAGQYTCHKGGEVLSHSLLLLHKKEDGIWSTDILKDQKEPKNKTFLRCEAKNYSGRFTCWWLTTISTDLTFSVKSSRGSSDPQGVTCGAATLSAERVRGDNKEYEYSVECQEDSACPAAEESLPIEVMVDAVHKLKYENYTSSFFIRDIIKPDPPKNLQLKPLKNSRQVEVSWEYPDTWSTPHSYFSLTFCVQVQGKSKREKKDRVFTDKTSATVICRKNASISVRAQDRYYSSSWSEWASVPCSGGGGSGGGSGGGGSRNLPVATPDPGMFPCLHHSQNLLRAVSNMLQKARQTLEFYPCTSEEIDHEDITKDKTSTVEACLPLELTKNESCLNSRETSFITNGSCLASRKTSFMMALCLSSIYEDLKMYQVEFKTMNAKLLMDPKRQIFLDQNMLAVIDELMQALNFNSETVPQKSSLEEPDFYKTKIKLCILLHAFRIRAVTIDRVMSYLNASGGGGSGGGDKTHTCPPCPAPEDEGGPSVFLFPPKPKDTLMISRTPEVTCVVVDVSHEDPEVKFNWYVDGVEVHNAKTKPREEQYNSTYRVVSVLTVLHQDWLNGKEYKCKVSNKALPAPIEKTISKAKGQPREPQVYVYPPSREEMTKNQVSLTCLVKGFYPSDIAVEWESNGQPENNYKTTPPVLDEDGSFALVSKLTVDKSRWQQGNVFSCSVMHEALHNHYTQKSLSLSPGK
chain 2: FTVTVPKDLYVVEYGSNMTIECKFPVEKQLDLAALQVYWMMEDKNIIQFVHGEEDLKVQHSSYRQRARLLKDQLSLGNAALQITDVKLQDAGVYTCLIAYKGADYKRITVKVNAPYNKINQRILVVDPVTSEHELTCQAEGYPKAEVIWTSSDHQVLSGKTTTTNSKREEKLFNVTSTLRINTTTNEIFYCTFRRLDPEENHTAELVIPELPLAHPPNERGGGSGQDPYVKEAENLKKYFNAGHSDVVDNGTLFLGILKNWKEESDRKIMQSQIVSFYFKLFKNFKDDQSIQKSVETIKEDMNVKFFNSNKKKRDDFEKLTNYSVTDLNVQRKAIHELIQVMAELSPAAKTGKRKRSQMLFRGGGGSGGGGSGGGGSGGGGSQDPYVKEAENLKKYFNAGHSDVVDNGTLFLGILKNWKEESDRKIMQSQIVSFYFKLFKNFKDDQSIQKSVETIKEDMNVKFFNSNKKKRDDFEKLTNYSVTDLNVQRKAIHELIQVMAELSPAAKTGKRKRSQMLFRGGGGGSGGGDKTHTCPPCPAPEKKGGPSVFLFPPKPKDTLMISRTPEVTCVVVDVSHEDPEVKFNWYVDGVEVHNAKTKPREEQYNSTYRVVSVLTVLHQDWLNGKEYKCKVSNKALPAPIEKTISKAKGQPREPQVYVLPPSREEMTKNQVSLLCLVKGFYPSDIAVEWESNGQPENRYMTWPPVLDSDGSFFLYSKLTVDKSRWQQGNVFSCSVMHEALHNHYTQKSLSLSPGK
B4: IL-12(E59A/F60A)/IFN-γ(A23V/A23V)/PD-L1(mut7)-Fc (Fc fusion)
chain 1: B3 chain 1 with K101G
chain 2: B3 chain 2 with K101G

Molecular target: human PD-1 on cells (HEK-PD-1 reporter cells; activated PBMC) (human, UniProt Q15116 25-288)
Experiment: cell-based or functional assay

Sequence of human PD-1 on cells (HEK-PD-1 reporter cells; activated PBMC) (Q15116 25-288): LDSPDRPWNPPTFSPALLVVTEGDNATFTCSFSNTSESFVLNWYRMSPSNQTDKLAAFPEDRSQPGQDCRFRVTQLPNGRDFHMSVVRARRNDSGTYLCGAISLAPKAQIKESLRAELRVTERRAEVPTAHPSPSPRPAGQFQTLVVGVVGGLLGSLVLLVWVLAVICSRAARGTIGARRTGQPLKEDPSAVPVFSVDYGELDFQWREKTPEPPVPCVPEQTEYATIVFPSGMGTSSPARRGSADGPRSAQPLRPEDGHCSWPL

Row | IFN-γ signal transduction, HEK-IFN-γ-PD-1 [%] | IL-12 signal transduction, HEK-IL-12-PD-1 [%] | Binder
1 | 35 | 45 | B1
2 | 40 | 49 | B2
3 | 39 | 32 | B3
4 | 45 | 43 | B4

Molecular target: T1, IFN-γ receptor (IFNGR1 and IFNGR2)
Experiment: cell-based or functional assay

Row | IFN-γ signal transduction, HEK-IFN-γ [%] | Binder
5 | < 0.1 | B1
6 | < 0.1 | B2
7 | < 0.1 | B3
8 | < 0.1 | B4

Molecular target: human IL-12 receptor complex (IL-12Rβ1 and IL-12Rβ2) (human, UniProt P42701 24-662; Q99665 24-862)
Experiment: cell-based or functional assay

Sequence of human IL-12 receptor complex (IL-12Rβ1 and IL-12Rβ2) (Q99665 24-862, chain 2 of 2, other chains not shown): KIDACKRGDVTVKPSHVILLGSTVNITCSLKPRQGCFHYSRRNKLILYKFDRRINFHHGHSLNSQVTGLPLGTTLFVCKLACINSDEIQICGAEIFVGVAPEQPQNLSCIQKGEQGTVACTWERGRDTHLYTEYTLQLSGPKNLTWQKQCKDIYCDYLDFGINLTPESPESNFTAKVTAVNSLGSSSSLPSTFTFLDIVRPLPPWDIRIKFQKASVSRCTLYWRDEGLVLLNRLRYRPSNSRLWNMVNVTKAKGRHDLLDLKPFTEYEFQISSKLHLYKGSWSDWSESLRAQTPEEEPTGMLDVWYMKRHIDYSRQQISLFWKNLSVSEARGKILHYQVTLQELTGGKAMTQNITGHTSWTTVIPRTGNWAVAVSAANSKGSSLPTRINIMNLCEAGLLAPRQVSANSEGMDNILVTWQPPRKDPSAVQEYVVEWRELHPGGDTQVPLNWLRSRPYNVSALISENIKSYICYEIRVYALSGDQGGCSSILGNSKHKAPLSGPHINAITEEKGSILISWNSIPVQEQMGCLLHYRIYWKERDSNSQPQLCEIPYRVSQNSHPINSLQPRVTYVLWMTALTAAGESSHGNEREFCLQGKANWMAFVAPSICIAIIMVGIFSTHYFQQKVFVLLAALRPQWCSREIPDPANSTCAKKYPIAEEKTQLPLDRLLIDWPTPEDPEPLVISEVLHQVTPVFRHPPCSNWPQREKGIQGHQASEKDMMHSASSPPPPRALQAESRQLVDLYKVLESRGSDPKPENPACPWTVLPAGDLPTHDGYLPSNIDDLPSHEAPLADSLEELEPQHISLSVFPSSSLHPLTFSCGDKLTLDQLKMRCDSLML

Row | IL-12 signal transduction, HEK-IL-12 [%] | Binder
9 | < 0.2 | B1
10 | < 0.2 | B2
11 | < 0.2 | B3
12 | < 0.2 | B4
